Measurements taken from article PMC6349404.

Molecular target: recombinant human Osteolectin (human) (UniProt Q9Y240)
Assay: ELISA; microtiter well binding assay; plates coated with 10 nM recombinant human Osteolectin, Pro-Collagen 1α or BSA overnight at 4°C, blocked with 10 mg/ml BSA; 6xHis tagged integrins in TBS (50 mM Tris-Cl pH 7.5, 150 mM NaCl) with 1 mM MnCl2; bound integrin detected with anti-His tag antibody and HRP secondary, OD 450 nm

Sequence of recombinant human Osteolectin (human) (Q9Y240 22-323): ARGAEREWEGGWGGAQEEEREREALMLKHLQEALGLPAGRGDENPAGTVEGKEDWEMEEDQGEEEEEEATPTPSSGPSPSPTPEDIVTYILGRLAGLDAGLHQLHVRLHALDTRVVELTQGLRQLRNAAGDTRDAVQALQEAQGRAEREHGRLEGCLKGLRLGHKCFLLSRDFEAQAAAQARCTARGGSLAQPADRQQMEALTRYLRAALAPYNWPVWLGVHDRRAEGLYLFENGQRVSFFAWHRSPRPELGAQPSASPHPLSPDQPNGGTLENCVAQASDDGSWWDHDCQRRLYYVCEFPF

Row | Kd [nM] | Substance
1 | > 100 | recombinant human integrin αVβ3 (from UniProt P06756 31-1048; P05106 27-718) (complex)
2 | > 100 | recombinant human integrin αVβ1 (from UniProt P06756 31-1048; P05556 21-728) (complex)
3 | > 100 | recombinant human integrin αIIbβ3 (from UniProt P08514 32-1039; P05106 27-718) (complex)
